Results from paper PMC12040651, “cAMP-independent Crp homolog adds to the multi-layer regulatory network in Porphyromonas gingivalis”.

How the values were obtained:
[1] = target: Crp^Pg protein (Porphyromonas gingivalis A7436 Crp homolog, CRP/FNR superfamily) (Porphyromonas gingivalis A7436); assay: cross-linking; 10 uM purified Crp^Pg in PBS, 30 min at room temperature, without or with 1 mM cAMP, then 0.2% formaldehyde for 1 h at 37°C; SDS-PAGE with CBB G-250 staining; monomer to dimer
CrpPg (Crp homolog) = target: T1, CrpPg (Crp homolog) (Porphyromonas gingivalis A7436, UniProt Q7MAW7 1-232); assay: EMSA; conditions: protein: recombinant, tags: 6xHis-MBP N-terminal, removed with Factor Xa, chain copies: 2, blunt
T1 sequence: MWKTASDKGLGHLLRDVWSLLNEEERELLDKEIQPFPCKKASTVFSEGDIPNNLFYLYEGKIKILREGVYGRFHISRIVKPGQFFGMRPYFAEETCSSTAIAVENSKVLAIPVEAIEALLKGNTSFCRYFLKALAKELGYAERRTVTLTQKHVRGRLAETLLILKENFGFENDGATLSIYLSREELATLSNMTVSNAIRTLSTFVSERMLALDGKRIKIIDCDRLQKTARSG

Crp^Pg protein (Porphyromonas gingivalis A7436 Crp homolog, CRP/FNR superfamily) (natural protein)
stoichiometry N [1]: 2

B1: mfa promoter fragment 5 (dsDNA)
DNA 1: ATTTAATATTAATCCTTTTAAACATTTGGCTTATGAAGTTAAACAAAATGTTTTTGGTCGGAGCATTGCTCTCATTGGGCT
DNA 2: AGCCCAATGAGAGCAATGCTCCGACCAAAAACATTTTGTTTAACTTCATAAGCCAAATGTTTAAAAGGATTAATATTAAAT
binding result (CrpPg (Crp homolog); label: 5' biotin via PBM_0217 (probe)): binds

B2: crpPg promoter fragment 4 (dsDNA)
DNA 1: CTCATAATAATAGTTCTACGGCCTTTCTTCCTCGTTGTACGGATTTGAGCAAATAGACATTCTCTGAACACTTATATGTGGAAGACAG
DNA 2: CTGTCTTCCACATATAAGTGTTCAGAGAATGTCTATTTGCTCAAATCCGTACAACGAGGAAGAAAGGCCGTAGAACTATTATTATGAG
binding result (CrpPg (Crp homolog); label: 5' biotin via PBM_0206 (probe)): binds
